In data set [1] the target is Bosea sp. Root381 GapR(L48M-I54M-L73M), selenomethionine substituted (Bosea sp. Root381). The data set is described as follows: crystal structure.
The target in data set [2] is Bosea sp. Root381 GapR, wild type (Bosea sp. Root381). The data set is described as follows: crystal structure.
For data set [3], the target named is T1, GapR(11-89) L83M SeMet (Caulobacter crescentus, UniProt B8H4R9 11-89, L83M).
T1 sequence: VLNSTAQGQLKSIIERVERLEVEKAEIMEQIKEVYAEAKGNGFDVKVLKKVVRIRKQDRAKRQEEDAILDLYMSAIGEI
The data set is described as follows: X-ray crystallography.

In data set [4] the target is T2, GapR(11-89) WT (Caulobacter crescentus, UniProt B8H4R9 11-89).
T2 sequence: T1 sequence with M73L
The data set is described as follows: X-ray crystallography.

Data set [5] deals with the molecule itself. Briefly: crystal structure.
Data set [6] concerns the molecule itself. The data set is described as follows: SEC-MALS. A general note: Size exclusion chromatography separates by hydrodynamic size, large species first.

Usually stoichiometry N stands for the number of molecules, sites or subunits per partner or assembly.

Positions count from the first letter of the chain named. In names and notes the source's numbering stands.

In data set [1], “Bosea sp. Root381 GapR(L48M-I54M-L73M), selenomethionine substituted (natural protein)” gave a stoichiometry N of 2.

In data set [2], “Bosea sp. Root381 GapR, wild type (natural protein)” registered a stoichiometry N of 4.

B1: AT-rich crystallization 11-mer (dsDNA)
DNA 1: TTAAAATTAAA
DNA 2: TTTAATTTTAA
B1: the binding result in data set [3] and in data set [4] was “binds” throughout.

B2: C. crescentus GapR(11-89) L83M, selenomethionine substituted (domain or fragment, Caulobacter crescentus, UniProt B8H4R9 11-89, looked up)
chain: T1 sequence
modifications: selenomethionine substituted
Consider B2, for which, in data set [5], the “stoichiometry N” value was found to be 4.

B3: Caulobacter crescentus GapR, untagged (natural protein, UniProt B8H4R9 1-89, looked up)
chain: MADDAIPHTDVLNSTAQGQLKSIIERVERLEVEKAEIMEQIKEVYAEAKGNGFDVKVLKKVVRIRKQDRAKRQEEDAILDLYLSAIGEI
B3: in data set [6], the “stoichiometry N” value was 2.

These data come from publication PMC6173638 (Cell, 2018).
